PMC8204385 (Biophysical Journal, 2021)
Several values for one entry are separate records, joined by “and”; a condition that tells them apart may be missing. Identical values can stand only once.

Molecular target: T1, human SHP-1 (Homo sapiens, UniProt P29350)
T1 construct: 6xHis (N); made in house; host or cells: Escherichia coli BL21-CodonPlus (DE3)-RIPL
Experiment: SPR-based assay for tethered SHP-1 reactions on immobilised phosphopeptides, extended MPDPDE model fit
Format: binding
Conditions: 37°C; vertical intercept of regression of L^2 vs number of PEG linkers, all data except PEG0

T1 sequence (P29350 whole entry): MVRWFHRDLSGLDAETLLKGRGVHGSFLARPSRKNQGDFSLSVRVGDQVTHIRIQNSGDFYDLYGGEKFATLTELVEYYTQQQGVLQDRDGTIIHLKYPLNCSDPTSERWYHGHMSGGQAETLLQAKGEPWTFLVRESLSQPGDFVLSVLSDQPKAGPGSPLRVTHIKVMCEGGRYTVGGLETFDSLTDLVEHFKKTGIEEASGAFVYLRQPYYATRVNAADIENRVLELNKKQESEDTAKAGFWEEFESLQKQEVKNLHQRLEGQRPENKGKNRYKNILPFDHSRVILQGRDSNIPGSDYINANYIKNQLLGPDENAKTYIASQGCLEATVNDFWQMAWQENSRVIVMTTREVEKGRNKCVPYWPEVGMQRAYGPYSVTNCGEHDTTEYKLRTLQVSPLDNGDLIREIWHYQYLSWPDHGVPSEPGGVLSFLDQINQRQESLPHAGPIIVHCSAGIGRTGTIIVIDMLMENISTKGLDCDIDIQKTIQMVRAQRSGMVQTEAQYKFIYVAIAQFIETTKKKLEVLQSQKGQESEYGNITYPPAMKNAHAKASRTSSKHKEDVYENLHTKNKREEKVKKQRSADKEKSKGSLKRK

SHP-1: Human tyrosine phosphatase SHP-1 with an N-terminal 6× His tag produced in Escherichia coli
molecular reach of SHP-1 (LSHP-1): 13.0 nm and 13.0 ± 0.8 nm
